Assay results: the supplement of paper PMC6757056
± gives the standard deviation of the averaged measurements.

B1: library; a variant is named by its letters at N, in order (parent)
chain: GCUGUCACCGGUGUAUUACCCUAGUGGUCGACCGGUCUGAUGAGUCUNNNNNNAGACGAAACAGC

Assays:
hypoxanthine [1] = variants of: B1; experiment: normalized RNA/DNA level with ligand (relative to sTRSVctl = 100) (log10 (% of sTRSVctl)); ligand: hypoxanthine (xanthine aptamer); higher = less ribozyme self-cleavage, higher mRNA level; details: ligand concentration (+) RNA-Seq: 5 mM, HEK293T, reporter: mCherry (pCS4076), ligand present: yes
In short: (§1)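 Library plasmids encoding reporter-linked ribozyme switches (mCherry, or eGFP for some folinic acid experiments) were transfected into HEK293T at 4 µg per 6-well well. Ligand, when used, was added 1 h before transfection. Total RNA was extracted with EDTA 72 h later, then reverse-transcribed, amplified, barcoded and sequenced. RNA level was RNA reads over DNA reads, divided by a spiked-in non-cleaving control (or the top 25 sequences), ×100, log10; only sequences with ≥100 DNA reads were kept.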

hypoxanthine [2] = variants of: B1; experiment: normalized RNA/DNA level without ligand (relative to sTRSVctl = 100) (log10 (% of sTRSVctl)); ligand: hypoxanthine (xanthine aptamer); higher = less ribozyme self-cleavage, higher mRNA level; details: HEK293T, reporter: mCherry (pCS4076), ligand present: no
In short: as §1

Variant | normalized RNA/DNA level with ligand (log10) (hypoxanthine [1]) | normalized RNA/DNA level without ligand (log10) (hypoxanthine [2])
AUUAAC | 1.881 ± 0.0094 | 1.8077 ± 0.0004
CUGUAA | 1.917 ± 0.017 | 1.713 ± 0.006
CUGUAC | 1.93 ± 0.033 | 1.75 ± 0.093
CUGUAG | 1.88 ± 0.024 | 1.65 ± 0.032
CUGGCG | 1.97 ± 0.029 | 1.827 ± 0.0095
CUGGCC | 1.98 ± 0.16 | 1.91 ± 0.042
CUGGCA | 1.971 ± 0.0092 | 1.88 ± 0.039
CUGGCU | 1.96 ± 0.077 | 1.915 ± 0.0057
UUGUGC | 2.02 ± 0.024 | 1.99 ± 0.047
UUGUGA | 1.985 ± 0.003 | 1.8 ± 0.062
UUGUGU | 1.97 ± 0.051 | 1.93 ± 0.043
AUGGGU | 1.88 ± 0.066 | 1.534 ± 0.0046
AUGGGG | 1.88 ± 0.08 | 1.4 ± 0.081
AUGGGC | 1.94 ± 0.064 | 1.81 ± 0.022
GUUACA | 1.92 ± 0.031 | 1.8382 ± 0.0018
UUGGUG | 2.008 ± 0.0026 | 1.81 ± 0.054
UUGGUU | 1.99 ± 0.037 | 1.91 ± 0.025
UUGGUC | 1.97 ± 0.034 | 2.006 ± 0.0099
UUGGUA | 1.937 ± 0.0068 | 1.885 ± 0.0069
GUGGUC | 1.96 ± 0.038 | 1.79 ± 0.054
GUGGUU | 1.96 ± 0.064 | 1.875 ± 0.017
AUGGUU | 1.89 ± 0.034 | 1.763 ± 0.012
CUGCUA | 1.95 ± 0.052 | 1.77 ± 0.043
CUGCUG | 1.92 ± 0.094 | 1.815 ± 0.0021

Variant | normalized RNA/DNA level with ligand (log10) (hypoxanthine [1]) | normalized RNA/DNA level without ligand (log10) (hypoxanthine [2])
CUGCUC | 1.96 ± 0.063 | 2.01 ± 0.0072
CUGCUU | 1.962 ± 0.011 | 1.9272 ± 0.0008
UUUAAA | 1.94 ± 0.034 | 1.76 ± 0.036
UUUAAG | 1.915 ± 0.016 | 1.71 ± 0.043
UUUACC | 1.957 ± 0.011 | 1.867 ± 0.014
UUUACA | 1.97 ± 0.04 | 1.912 ± 0.011
UUUACG | 1.92 ± 0.035 | 1.76 ± 0.048
CUGGUA | 1.93 ± 0.022 | 1.773 ± 0.01
CUGGUG | 1.94 ± 0.059 | 1.76 ± 0.022
CUGGUC | 1.96 ± 0.026 | 1.93 ± 0.023
CUGGUU | 2.01 ± 0.024 | 1.858 ± 0.0054
CUGGAU | 1.94 ± 0.051 | 1.75 ± 0.072
CUGGAA | 1.94 ± 0.033 | 1.771 ± 0.013
CUGGAG | 1.86 ± 0.019 | 1.62 ± 0.037
CUGGAC | 1.97 ± 0.03 | 1.87 ± 0.03
CUGUCG | 1.98 ± 0.027 | 1.84 ± 0.032
CUGUCU | 2.03 ± 0.079 | 1.89 ± 0.077
CUGUCC | 2.01 ± 0.024 | 1.92 ± 0.053
AUGUCA | 1.95 ± 0.08 | 1.741 ± 0.0086
AUGUCG | 1.863 ± 0.018 | 1.52 ± 0.036
AUGUCC | 1.98 ± 0.11 | 1.884 ± 0.011
AUGCGU | 1.94 ± 0.025 | 1.819 ± 0.016
AUGGAU | 1.912 ± 0.0082 | 1.6566 ± 0.0015
UUGGGA | 2.02 ± 0.07 | 1.71 ± 0.053

Variant | normalized RNA/DNA level with ligand (log10) (hypoxanthine [1]) | normalized RNA/DNA level without ligand (log10) (hypoxanthine [2])
UUGGGC | 2.05 ± 0.032 | 1.914 ± 0.012
UUGGGU | 2.014 ± 0.011 | 1.82 ± 0.053
UUGGGG | 1.91 ± 0.047 | 1.82 ± 0.042
CUGGGA | 2.03 ± 0.061 | 1.857 ± 0.015
CUGGGU | 2 ± 0.069 | 1.881 ± 0.005
CUGGGC | 1.98 ± 0.047 | 1.902 ± 0.0037
AUGUUC | 1.94 ± 0.14 | 1.85 ± 0.034
AUGUUA | 1.92 ± 0.026 | 1.761 ± 0.011
AUGGCU | 1.89 ± 0.026 | 1.86 ± 0.031
AUGGCC | 1.959 ± 0.015 | 1.883 ± 0.014
AUGGCA | 1.92 ± 0.035 | 1.787 ± 0.017
UUGGAA | 1.942 ± 0.0068 | 1.771 ± 0.0035
UUGGAG | 1.95 ± 0.041 | 1.684 ± 0.0079
UUGGAU | 2.004 ± 0.0096 | 1.8482 ± 4.2e-06
UUGGAC | 1.95 ± 0.02 | 1.92 ± 0.043
CUGUUU | 2.02 ± 0.046 | 1.956 ± 0.006
CUGUUC | 1.97 ± 0.021 | 1.861 ± 0.0058
CUGUUG | 1.964 ± 0.0068 | 1.8708 ± 0.00036
GUGGAG | 1.79 ± 0.028 | 1.28 ± 0.1
GUGGAC | 1.889 ± 0.011 | 1.58 ± 0.068
GUGUUA | 1.912 ± 0.017 | 1.79 ± 0.047
GUGUUC | 1.909 ± 0.0089 | 1.84 ± 0.044
GUGUUU | 1.92 ± 0.041 | 1.87 ± 0.046
UUGUAC | 2 ± 0.025 | 1.973 ± 0.0097

Variant | normalized RNA/DNA level with ligand (log10) (hypoxanthine [1]) | normalized RNA/DNA level without ligand (log10) (hypoxanthine [2])
UUGUAA | 1.976 ± 0.014 | 1.9 ± 0.042
UUGUAG | 1.99 ± 0.025 | 1.84 ± 0.025
UUGUUU | 2.039 ± 0.018 | 2.04 ± 0.042
UUGUUG | 2.027 ± 0.012 | 1.9556 ± 0.0016
UUGUUA | 1.983 ± 0.0091 | 2.01 ± 0.043
UUGUUC | 2.012 ± 0.012 | 2.01 ± 0.032
AUGCUG | 1.898 ± 0.0024 | 1.61 ± 0.048
AUGCUU | 1.93 ± 0.088 | 1.861 ± 0.018
AUGCUC | 2.008 ± 0.011 | 1.976 ± 0.013
CUGUGC | 1.907 ± 0.018 | 1.86 ± 0.043
CUGUGA | 1.976 ± 0.0082 | 1.82 ± 0.065
CUGUGU | 1.95 ± 0.047 | 1.898 ± 0.0077
AUGUGC | 1.853 ± 0.018 | 1.667 ± 0.0026
GUUAAA | 1.933 ± 0.0032 | 1.798 ± 0.0025
GUUAAG | 1.853 ± 0.0019 | 1.48 ± 0.027
CUGCGU | 1.954 ± 0.013 | 1.93 ± 0.021
UUGCGU | 1.97 ± 0.024 | 1.82 ± 0.067
CUUACA | 1.932 ± 0.011 | 1.83 ± 0.062
CUUACG | 1.96 ± 0.025 | 1.87 ± 0.086
GUGUCU | 1.95 ± 0.04 | 1.85 ± 0.019
GUGUCA | 1.94 ± 0.052 | 1.77 ± 0.043
GUGUCC | 1.97 ± 0.036 | 1.776 ± 0.0043
AUUACC | 1.926 ± 0.013 | 1.94 ± 0.038
CUUAAA | 1.899 ± 0.0031 | 1.8 ± 0.036

Variant | normalized RNA/DNA level with ligand (log10) (hypoxanthine [1]) | normalized RNA/DNA level without ligand (log10) (hypoxanthine [2])
CUUAAG | 1.93 ± 0.081 | 1.69 ± 0.018
CUUAAU | 1.9 ± 0.0027 | 1.76 ± 0.028
UUGGCU | 1.98 ± 0.042 | 1.988 ± 0.013
UUGGCC | 1.97 ± 0.066 | 2.013 ± 0.0026
UUGGCA | 1.966 ± 0.0098 | 1.907 ± 0.018
UUGCUA | 1.95 ± 0.045 | 1.897 ± 0.0028
UUGCUG | 2.009 ± 0.012 | 1.94 ± 0.028
UUGCUC | 2.061 ± 0.0057 | 1.9913 ± 0.0008
GUGGGC | 1.81 ± 0.1 | 1.33 ± 0.11
GUGUAC | 1.92 ± 0.045 | 1.69 ± 0.11
GUGGCA | 1.98 ± 0.02 | 1.83 ± 0.072
GUGGCC | 1.98 ± 0.027 | 1.88 ± 0.023
GUGGCU | 1.96 ± 0.042 | 1.881 ± 0.0077
UUGUCA | 1.99 ± 0.037 | 1.946 ± 0.01
UUGUCG | 1.99 ± 0.025 | 1.947 ± 0.0075
UUGUCU | 1.99 ± 0.03 | 2.02 ± 0.083
UUGUCC | 1.99 ± 0.03 | 2.03 ± 0.067
GUGCUA | 1.93 ± 0.017 | 1.75 ± 0.093
GUGCUU | 1.96 ± 0.027 | 1.89 ± 0.019
GUGCUC | 1.909 ± 0.011 | 1.85 ± 0.034
